# Test results: patent US20230357424A1 (published 2023)
# T1: human CD45 D1-D4 (amino acids 194-578) with C-terminal 8xHis tag (human, UniProt P08575 194-578)
# T1 construct: Made in house in expi293 cells; SPR analyte; also called D1-D4 region of human CD45RO
# T1 sequence: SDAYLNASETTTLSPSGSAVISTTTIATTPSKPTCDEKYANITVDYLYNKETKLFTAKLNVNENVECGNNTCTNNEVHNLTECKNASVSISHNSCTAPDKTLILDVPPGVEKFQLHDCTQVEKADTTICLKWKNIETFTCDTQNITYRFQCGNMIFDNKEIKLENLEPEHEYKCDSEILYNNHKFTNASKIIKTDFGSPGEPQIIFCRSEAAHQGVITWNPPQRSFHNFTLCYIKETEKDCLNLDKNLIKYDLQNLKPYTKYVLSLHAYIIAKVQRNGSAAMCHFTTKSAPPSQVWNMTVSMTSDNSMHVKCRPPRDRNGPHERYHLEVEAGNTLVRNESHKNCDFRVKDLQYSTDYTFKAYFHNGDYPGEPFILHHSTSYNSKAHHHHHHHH
# T2: hCD45 D1 domain displayed on yeast as Aga2 fusion (human)
# T2 construct: not shown: Aga2p anchor protein for yeast surface expression
# T2 chain: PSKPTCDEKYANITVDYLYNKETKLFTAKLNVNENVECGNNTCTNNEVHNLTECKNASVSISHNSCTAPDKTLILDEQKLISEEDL
# T3: hCD45 D4 domain displayed on yeast as Aga2 fusion (human, UniProt P08575 479-571)
# T3 construct: not shown: Aga2p anchor protein for yeast surface expression
# T3 sequence: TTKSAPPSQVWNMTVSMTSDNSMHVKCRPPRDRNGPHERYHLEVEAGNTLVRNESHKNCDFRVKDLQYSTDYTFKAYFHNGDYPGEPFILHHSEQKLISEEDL
# T4: hCD45 D3 domain displayed on yeast as Aga2 fusion (human)
# T4 construct: not shown: Aga2p anchor protein for yeast surface expression
# T4 chain: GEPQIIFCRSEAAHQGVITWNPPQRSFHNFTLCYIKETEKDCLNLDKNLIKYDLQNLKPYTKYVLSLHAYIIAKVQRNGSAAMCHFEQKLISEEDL
# B1: 2H7 VHH monomeric Fc fusion (Fc fusion)
# VHH: QVQLQESGGGLVQAGGSLRLSCAASGRTFSTHAMGWFRQAPGKEREFVAAIAWSGGSTYYADSVKGRFTISRDISKNTIYLQMNSLKPEDTALYYCAATNGGAWHYHERYFGSWGQGTLVTVSS
# notes: Clonotype 8; Construct used for SPR; not shown: monomeric Fc tag
# B2: 2C5 VHH monomeric Fc fusion (Fc fusion)
# VHH: QVQLQEFGGGLVQAGASLRLSCAASGGTFSYFMGWFRQAPGKEREFVATINRNGGATGYADSVKGRFTISRDNAKNTLYLQMDSVTPEDTAVYYCAAARESSVYYTSTDPAEYGYWGQGTQVTVSS
# notes: Clonotype 6; Construct used for SPR; not shown: monomeric Fc tag
# B3: 1G1 VHH monomeric Fc fusion (Fc fusion)
# VHH: QVQLQASGGGLVQAGGSLRLSCAASGRTVSSDAMGWFRQAPGKEREFVAAINWNGASTYYGDSAQGRFTISRDNAKNTVYLQMNSLKSEDTAVYYCAASDWVVGGISLMNGAEYKYWGQGTLVTVSS
# notes: Clonotype 7; Construct used for SPR; not shown: monomeric Fc tag
# B4: 2F8 VHH monomeric Fc fusion (Fc fusion)
# VHH: QVQLQQFGGGLVQAGGSLRLSCAASGRTFSGYAMGWFRQAPGKEREFVAAINWSGGSTYYADSVKGRYTISRDNAKNTGYLQMNSLKSEDTAVYYCAASDWVVGGISLMNGAEYKYWGQGTLVTVSS
# notes: as for B3
# B5: 1E4 VHH monomeric Fc fusion (Fc fusion)
# VHH: QVQLQESGGGLVQPGGSLRLSCAASGGTFSDYGMGWFRQAPGKEREFVSSISWSGNSVYYAGAVRGRFTISRDNAKNTVYLQMNSLQPEDTAVYYCAASSTWNNNDPTEYEYWGQGTLVTVSS
# notes: Clonotype 3; Construct used for SPR; not shown: monomeric Fc tag
# B6: 1A10 VHH monomeric Fc fusion (Fc fusion)
# VHH: QVQLQAFGGGLVQAGGSLGLSCSASGTIFNLDYMGWYRQALGKQRELVATITSDGRTNYADSVKGRFTIFRDGAKNAILMQMNSLKPEDTAVYYCKAYLSGRSDYWGQGTQVTVSS
# notes: Clonotype 10; Construct used for SPR; not shown: monomeric Fc tag
# B7: 1D6 VHH monomeric Fc fusion (Fc fusion)
# VHH: QVQLQESGGGSVQAGGSLGLFCSASGTIFNIDVMGWYRQAPGKQRELVATITSDGRTNYADSVKGRFTISRDGAKNAVHVQMNSLKPEDTAVYYCKAYLSGRSDYWGQGTQVTVSS
# notes: as for B6
# B8: 2G4 VHH monomeric Fc fusion (Fc fusion)
# VHH: QVQLQEFGGGLVQAGGSLRLSCAASGSISRINAMGWYRQAPGKQRELVAVITSGGSTHYADSVKGRFTISRDNAKNTLYLQMNSLKPEDTAVYYCNGRRKTTGWGSLREWEGSRDPDEYNYWGQGTLVTVSS
# notes: Clonotype 2; Construct used for SPR; not shown: monomeric Fc tag
# B9: 4B2 anti-CD45 antibody, recombinant mouse IgG2a (antibody, from another filing, V domains shown)
# VH: GVQLQESGAELARPGASVKMSCKASGYTFTSYTMQWVKQRPGQGLEWIGYINPSSGYIKYNQKFKDKVTLTADKSSTTAYMQLSRLTSEDSAVYYCARRGSYFFDFWGQGTSVTVSS
# VL: DIVITQDELSNPVTSGESVSISCRSSKSLLYKDGKTYLNWFLQRPGQSPQLLIYLMSTRASGVSDRFSGSGSGTDFTLEISRVKAEDVGVYYCQQLVEYPFTFGGGTKLEVK
# B10: gap8.3 anti-CD45 antibody, recombinant mouse IgG2a (antibody, from another filing, V domains shown)
# VH: EVQLQQSGPELVKTGASVKISCKASGYSFTGYFIHWVKQSHGKSLEWIGYISCYNGATSYNQKFKGKATFTVDTSSSTAYMQFNSVTSEDSAVYYCVRNYYGNLDAMDYWGQGTSVTVSS
# VL: DIVMTQSHKFMSTSVGDRVSITCKASQDVSTAVAWYQQKPGQSPKILIYSASYRYTGVPDRFTGSGSGTDFTFTISSVQAEDLAVYYCQQHYSTPRTFGGGTKLEIK
# B11: 1G1 VHH, His-tagged (VHH)
# VHH: QVQLQASGGGLVQAGGSLRLSCAASGRTVSSDAMGWFRQAPGKEREFVAAINWNGASTYYGDSAQGRFTISRDNAKNTVYLQMNSLKSEDTAVYYCAASDWVVGGISLMNGAEYKYWGQGTLVTVSS
# notes: Clonotype 7; not shown: His tag
# B12: 2D6 VHH, His-tagged (VHH)
# VHH: QVQLQESGGGLVQAGASLRLSCAASGRTFSSFMGWFRQAPGKERKFVATINWNGGATGYADSVKGRFTISRDNAKNTLYLQMNSLKPEDTAVYYCAAARTGSAYYTSSDAGEYNYWGQGTQVTVSS
# notes: Clonotype 6; not shown: His tag
# B13: 1A10 VHH, His-tagged (VHH)
# VHH: QVQLQAFGGGLVQAGGSLGLSCSASGTIFNLDYMGWYRQALGKQRELVATITSDGRTNYADSVKGRFTIFRDGAKNAILMQMNSLKPEDTAVYYCKAYLSGRSDYWGQGTQVTVSS
# notes: Clonotype 10; not shown: His tag
# B14: 1D6 VHH, His-tagged (VHH)
# VHH: QVQLQESGGGSVQAGGSLGLFCSASGTIFNIDVMGWYRQAPGKQRELVATITSDGRTNYADSVKGRFTISRDGAKNAVHVQMNSLKPEDTAVYYCKAYLSGRSDYWGQGTQVTVSS
# notes: as for B13
# B15: 4B2 scFv linked to a human IgG1 Fc domain (scFv, from another filing, V domains shown)
# VH: GVQLQESGAELARPGASVKMSCKASGYTFTSYTMQWVKQRPGQGLEWIGYINPSSGYIKYNQKFKDKVTLTADKSSTTAYMQLSRLTSEDSAVYYCARRGSYFFDFWGQGTSVTVSS
# VL: DIVITQDELSNPVTSGESVSISCRSSKSLLYKDGKTYLNWFLQRPGQSPQLLIYLMSTRASGVSDRFSGSGSGTDFTLEISRVKAEDVGVYYCQQLVEYPFTFGGGTKLEVK
# B16: gap8.3 scFv linked to a human IgG1 Fc domain (scFv, from another filing, V domains shown)
# VH: EVQLQQSGPELVKTGASVKISCKASGYSFTGYFIHWVKQSHGKSLEWIGYISCYNGATSYNQKFKGKATFTVDTSSSTAYMQFNSVTSEDSAVYYCVRNYYGNLDAMDYWGQGTSVTVSS
# VL: DIVMTQSHKFMSTSVGDRVSITCKASQDVSTAVAWYQQKPGQSPKILIYSASYRYTGVPDRFTGSGSGTDFTFTISSVQAEDLAVYYCQQHYSTPRTFGGGTKLEIK
# Target: T1, human CD45 D1-D4 (amino acids 194-578) …
# Assay: SPR, Biacore T200, single cycle kinetics; VHH monomeric Fc fusion captured on Protein A chip, CD45 D1-D4 as analyte
# Experimental: The yeast display system as described above was employed to domain map the VHH binding sites. For labeling, His-tagged VHH proteins were incubated with the yeast and detected using an anti-VHH antibody. Seven VHH clonotypes bound across all four domains of CD45RO, with clonotypes 3, 4, and 7 targeting the D1 and D2 domains, clonotype 10 binding the D3 domain, clonotypes 2, 6, and 8 interacting with the D4 domain (Table 3).
# Affinities were determined using a Biacore T200 instrument by measuring Kon/Koff in single cycle kinetics mode. Hybridoma clones were either reformatted and expressed in the form of the parent IgG (gap8.3, 4B2, 9.4 as murine IgG2A, VHE as human IgG1), and scFvs were expressed as human IgG1 Fc fusions. For the anti-CD45 VHH, proteins were expressed as monomeric Fc fusions. […] Human CD45 D1-D4 was generated in house with a C-terminal 8×His tag (SEQ ID NO: 610) and expressed and purified from expi293 cells by standard Ni- and SEC chromatography methods. Kinetic affinity constants were calculated using the Biacore® T200 software package.
row,Molecule,Kd [nM]
1,B1,0.88
2,B2,1.4
3,B3,28
4,B4,69
5,B5,299
6,B6,32
7,B7,522
8,B8,8.3

# Target: human CD45 D1-D4 (amino acids 194-578) with C-terminal 8xHis tag (human) (UniProt P08575)
# Assay: SPR, Biacore T200, single cycle kinetics; IgG captured on Protein A chip, CD45 D1-D4 as analyte
row,Molecule,Kd [nM]
1,"9.4 anti-CD45 antibody, recombinant mouse IgG2a",2.4
2,B9,17
3,B10,21

# Target: T2, hCD45 D1 domain displayed on yeast as …
# Assay: epitope mapping (yeast display) and affinity studies; grade in column Notes
# Experimental: (§1) CD45 domains described in FIG. 2 were fused to the C-term of Aga2 with an N-term FLAG and C-term c-Myc tag. Yeast constructs were expressed on the surface of yeast (S. cervisiae ATCC strain YVH10). Yeast were grown overnight at 30C in synthetic selective media SD-SCAA, then induced again overnight at 20° C. in SG-SCAA. Yeast were incubated with individual a-CD45 antibodies or a-CD45 VHH for 60 minutes on ice, washed, and incubated with anti-mouse/anti-human Fc or anti-VHH Alexa647 secondary antibody as well as an anti-FLAG or anti-c-Myc Alexa488 secondary antibody. Labeled yeast were analyzed by flow cytometry on a Beckman Coulter Cytoflex® and analyzed using the FlowJo® software package.
# (§2) The results of the epitope mapping of the VHHs described above conducted in substantial accordance with the teaching of Example 3 and the affinity measurements conducted in substantial accordance with the teaching of Example 4 above are summarized in the following Table 7 and the sequences of the VHHs and corresponding CDRs are provide in Table 4 above: […]
row,Molecule,binding result
1,B11,binds

# Target: T3, hCD45 D4 domain displayed on yeast as …
# Assay: as above
# Experimental: as §1, §2
row,Molecule,binding result
1,B12,binds

# Target: T4, hCD45 D3 domain displayed on yeast as …
# Assay: as above
# Experimental: as §1, §2
row,Molecule,binding result
1,B13,binds
2,B14,binds

# Target: human CD45 D1-D4 (amino acids 194-578) with C-terminal 8xHis tag (human) (UniProt P08575)
# Assay: SPR, Biacore T200, single cycle kinetics; scFv-Fc captured on Protein A chip, CD45 D1-D4 as analyte
row,Molecule,Kd [nM]
1,9.4 scFv linked to a human IgG1 Fc domain,18
2,B15,12
3,B16,40
